# Assay results published in the Human Domainome abundance scans (Beltran et al. 2025).
# ± gives the uncertainty stated by the source.
# B1: Chromodomain-helicase-DNA-binding protein 7, residues 2564 to 2605; numbered along this chain, Q9P2D1 (parent)
# chain: DPDTRIPVINLEDGTRLVGEDAPKNKDLVEWLKLHPTYTVDM
# Variants of: B1
# Assay: abundance fitness (aPCA) (normalised: wild type 0, dead -1); higher = more abundant; growth selection in yeast, the domain comes from the species named
# Conditions: Homo sapiens
row,Variant,abundance fitness
1,DPDTRIPVINLEDSTRLVGEDAPKNKDLVEWLKLHPTYTVDM [G14S],-0.141 ± 0.071
2,DPDTRIPVINLEDTTRLVGEDAPKNKDLVEWLKLHPTYTVDM [G14T],-0.275 ± 0.14
3,DPDTRIPVINLEDWTRLVGEDAPKNKDLVEWLKLHPTYTVDM [G14W],-0.084 ± 0.29
4,DPDTRIPVINLEDMTRLVGEDAPKNKDLVEWLKLHPTYTVDM [G14M],0.114 ± 0.071
5,DPDTRIPVINLEDQTRLVGEDAPKNKDLVEWLKLHPTYTVDM [G14Q],0.007 ± 0.11
6,DPDTRIPVINLEDFTRLVGEDAPKNKDLVEWLKLHPTYTVDM [G14F],-0.277 ± 0.16
7,DPDTRIPVINLEDRTRLVGEDAPKNKDLVEWLKLHPTYTVDM [G14R],-0.168 ± 0.074
8,DPDTRIPVINLEDNTRLVGEDAPKNKDLVEWLKLHPTYTVDM [G14N],0.152 ± 0.1
9,DPDTRIPVINLEDCTRLVGEDAPKNKDLVEWLKLHPTYTVDM [G14C],-0.226 ± 0.22
10,DPDTRIPVINLEDDTRLVGEDAPKNKDLVEWLKLHPTYTVDM [G14D],-0.146 ± 0.14
11,DPDTRIPVINLEDLTRLVGEDAPKNKDLVEWLKLHPTYTVDM [G14L],-0.424 ± 0.089
12,DPDTRIPVINLEDATRLVGEDAPKNKDLVEWLKLHPTYTVDM [G14A],-0.115 ± 0.08
13,DPDTRIPVINLEDETRLVGEDAPKNKDLVEWLKLHPTYTVDM [G14E],-0.012 ± 0.09
14,DPDTRIPVINLEDGTLLVGEDAPKNKDLVEWLKLHPTYTVDM [R16L],-0.077 ± 0.39
15,DPDTRIPVINLEDGTWLVGEDAPKNKDLVEWLKLHPTYTVDM [R16W],-0.173 ± 0.069
16,DPDTRIPVINLEDGTMLVGEDAPKNKDLVEWLKLHPTYTVDM [R16M],0.502 ± 0.24
17,DPDTRIPVINLEDGTQLVGEDAPKNKDLVEWLKLHPTYTVDM [R16Q],-0.23 ± 0.43
18,DPDTRIPVINLEDGTVLVGEDAPKNKDLVEWLKLHPTYTVDM [R16V],0.059 ± 0.072
19,DPDTRIPVINLEDGTALVGEDAPKNKDLVEWLKLHPTYTVDM [R16A],-0.039 ± 0.067
20,DPDTRIPVINLEDGTSLVGEDAPKNKDLVEWLKLHPTYTVDM [R16S],0.132 ± 0.047

row,Variant,abundance fitness
1,DPDTRIPVINLEDGTGLVGEDAPKNKDLVEWLKLHPTYTVDM [R16G],-0.4 ± 0.053
2,DPDTRIPVINLEDGTKLVGEDAPKNKDLVEWLKLHPTYTVDM [R16K],0.06 ± 0.17
3,DPDTRIPVINLEDGTCLVGEDAPKNKDLVEWLKLHPTYTVDM [R16C],0.154 ± 0.069
4,DPDTRIPVINLEDGTNLVGEDAPKNKDLVEWLKLHPTYTVDM [R16N],-0.128 ± 0.12
5,DPDTRIPVINLEDGTHLVGEDAPKNKDLVEWLKLHPTYTVDM [R16H],0.071 ± 0.077
6,DPDTRIPVINLELGTRLVGEDAPKNKDLVEWLKLHPTYTVDM [D13L],-0.627 ± 0.27
7,DPDTRIPVINLENGTRLVGEDAPKNKDLVEWLKLHPTYTVDM [D13N],0.046 ± 0.087
8,DPDTRIPVINLEGGTRLVGEDAPKNKDLVEWLKLHPTYTVDM [D13G],-0.268 ± 0.078
9,DPDTRIPVINLEVGTRLVGEDAPKNKDLVEWLKLHPTYTVDM [D13V],-0.421 ± 0.071
10,DPDTRIPVINLEHGTRLVGEDAPKNKDLVEWLKLHPTYTVDM [D13H],-1.01 ± 0.3
11,DPDTRIPVINLEAGTRLVGEDAPKNKDLVEWLKLHPTYTVDM [D13A],-0.183 ± 0.18
12,DPDTRIPVINLEDGTRDVGEDAPKNKDLVEWLKLHPTYTVDM [L17D],-0.41 ± 0.064
13,DPDTRIPVINLEDGTREVGEDAPKNKDLVEWLKLHPTYTVDM [L17E],-0.321 ± 0.12
14,DPDTRIPVINLEDGTRCVGEDAPKNKDLVEWLKLHPTYTVDM [L17C],-0.272 ± 0.051
15,DPDTRIPVINLEDGTRFVGEDAPKNKDLVEWLKLHPTYTVDM [L17F],-0.191 ± 0.13
16,DPDTRIPVINHEDGTRLVGEDAPKNKDLVEWLKLHPTYTVDM [L11H],0.293 ± 0.073
17,DPDTRIPVINYEDGTRLVGEDAPKNKDLVEWLKLHPTYTVDM [L11Y],0.064 ± 0.099
18,DPDTRIPVINMEDGTRLVGEDAPKNKDLVEWLKLHPTYTVDM [L11M],0.355 ± 0.16
19,DPDTRIPVINNEDGTRLVGEDAPKNKDLVEWLKLHPTYTVDM [L11N],0.242 ± 0.071
20,DPDTRIPVINSEDGTRLVGEDAPKNKDLVEWLKLHPTYTVDM [L11S],0.193 ± 0.053

row,Variant,abundance fitness
1,DPDTRIPVINIEDGTRLVGEDAPKNKDLVEWLKLHPTYTVDM [L11I],0.214 ± 0.085
2,DPDTRIPVINTEDGTRLVGEDAPKNKDLVEWLKLHPTYTVDM [L11T],0.353 ± 0.067
3,DPDTRIPVINFEDGTRLVGEDAPKNKDLVEWLKLHPTYTVDM [L11F],0.015 ± 0.13
4,DPDTRIPVINKEDGTRLVGEDAPKNKDLVEWLKLHPTYTVDM [L11K],0.005 ± 0.11
5,DPDTRIPVINEEDGTRLVGEDAPKNKDLVEWLKLHPTYTVDM [L11E],0.058 ± 0.077
6,DPDTRIPVINREDGTRLVGEDAPKNKDLVEWLKLHPTYTVDM [L11R],-0.104 ± 0.084
7,DPDTRIPVINGEDGTRLVGEDAPKNKDLVEWLKLHPTYTVDM [L11G],0.094 ± 0.064
8,DPDTRIPVINDEDGTRLVGEDAPKNKDLVEWLKLHPTYTVDM [L11D],0.067 ± 0.095
9,DPDTRIPVINLEDGMRLVGEDAPKNKDLVEWLKLHPTYTVDM [T15M],-0.264 ± 0.15
10,DPDTRIPVINLEDGHRLVGEDAPKNKDLVEWLKLHPTYTVDM [T15H],-0.128 ± 0.19
11,DPDTRIPVINLEDGRRLVGEDAPKNKDLVEWLKLHPTYTVDM [T15R],0.064 ± 0.1
12,DPDTRIPVINLEDGNRLVGEDAPKNKDLVEWLKLHPTYTVDM [T15N],0.117 ± 0.07
13,DPDTRIPVINLEDGARLVGEDAPKNKDLVEWLKLHPTYTVDM [T15A],0.069 ± 0.082
14,DPDTRIPVINLEDGLRLVGEDAPKNKDLVEWLKLHPTYTVDM [T15L],-0.055 ± 0.083
15,DPDTRIPVINLEDGDRLVGEDAPKNKDLVEWLKLHPTYTVDM [T15D],0.018 ± 0.096
16,DPDTRIPVINLEDGGRLVGEDAPKNKDLVEWLKLHPTYTVDM [T15G],0.081 ± 0.053
17,DPDTRIPVINLEDGVRLVGEDAPKNKDLVEWLKLHPTYTVDM [T15V],0.023 ± 0.068
18,DPDTRIPVINLEDGPRLVGEDAPKNKDLVEWLKLHPTYTVDM [T15P],-0.252 ± 0.16
19,DPDTRIPVINLEDGKRLVGEDAPKNKDLVEWLKLHPTYTVDM [T15K],0.051 ± 0.21
20,DPDTRIPVINLEDGFRLVGEDAPKNKDLVEWLKLHPTYTVDM [T15F],-0.218 ± 0.087
